Data as given in article PMC5180085.

Experiments:
Ku70;Ku80 [1] = biological target: T1, Ku70;Ku80 (human;human, UniProt P12956;P13010 1-609;1-732, |); assay: mwPIFE; mwPIFE, room temp, 30 min: BamHI 10 mM Tris-HCl pH 8, 100 mM KCl, 0.02% Triton X-100, 0.1 mg/ml BSA, 5 mM EDTA/MgCl2/CaCl2; Ku 35 mM Tris-Cl pH 7.9, 5.5% glycerol, 150 mM KCl, 1 mM EDTA, 0.1 mM DTT, 1.5 mM imidazole; XPF/ERCC1 10 mM Tris-Cl pH 8, 10 mM NaCl. FA: 10 mM Tris-HCl pH 8, 10 mM NaCl, 10% glycerol, 1 mM TCEP, 50 nM DNA, 25 C; details: protein: recombinant;recombinant, tags: ;, copies: 1;1, label: 5' biotin strand 1, blunt
[2] = biological target: T2, BamHI restriction endonuclease (UniProt P23940 1-213); assay: competition; Ca2+; mwPIFE, 1-10x excess; mwPIFE, room temp, 30 min: BamHI 10 mM Tris-HCl pH 8, 100 mM KCl, 0.02% Triton X-100, 0.1 mg/ml BSA, 5 mM EDTA/MgCl2/CaCl2; Ku 35 mM Tris-Cl pH 7.9, 5.5% glycerol, 150 mM KCl, 1 mM EDTA, 0.1 mM DTT, 1.5 mM imidazole; XPF/ERCC1 10 mM Tris-Cl pH 8, 10 mM NaCl. FA: 10 mM Tris-HCl pH 8, 10 mM NaCl, 10% glycerol, 1 mM TCEP, 50 nM DNA, 25 C; details: protein: commercial; chain copies: 2; blunt
T2 sequence: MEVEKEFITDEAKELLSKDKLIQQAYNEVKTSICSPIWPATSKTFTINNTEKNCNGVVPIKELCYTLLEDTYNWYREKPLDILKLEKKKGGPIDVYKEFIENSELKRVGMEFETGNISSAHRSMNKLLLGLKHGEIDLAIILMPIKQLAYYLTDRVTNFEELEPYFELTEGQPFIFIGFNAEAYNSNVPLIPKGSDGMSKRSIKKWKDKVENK

[3] = biological target: T2, BamHI restriction endonuclease; assay: mwPIFE; 5 mM Ca2+; mwPIFE, room temp, 30 min: BamHI 10 mM Tris-HCl pH 8, 100 mM KCl, 0.02% Triton X-100, 0.1 mg/ml BSA, 5 mM EDTA/MgCl2/CaCl2; Ku 35 mM Tris-Cl pH 7.9, 5.5% glycerol, 150 mM KCl, 1 mM EDTA, 0.1 mM DTT, 1.5 mM imidazole; XPF/ERCC1 10 mM Tris-Cl pH 8, 10 mM NaCl. FA: 10 mM Tris-HCl pH 8, 10 mM NaCl, 10% glycerol, 1 mM TCEP, 50 nM DNA, 25 C; details: protein: commercial; chain copies: 2; label: 5' biotin strand 1; 5' Cy3 strand 2; blunt
[4] = biological target: T3, XPF (truncated);ERCC1 (truncated) (human;human, UniProt Q92889;P07992 640-916;93-297, |); assay: fluorescence anisotropy; mwPIFE, room temp, 30 min: BamHI 10 mM Tris-HCl pH 8, 100 mM KCl, 0.02% Triton X-100, 0.1 mg/ml BSA, 5 mM EDTA/MgCl2/CaCl2; Ku 35 mM Tris-Cl pH 7.9, 5.5% glycerol, 150 mM KCl, 1 mM EDTA, 0.1 mM DTT, 1.5 mM imidazole; XPF/ERCC1 10 mM Tris-Cl pH 8, 10 mM NaCl. FA: 10 mM Tris-HCl pH 8, 10 mM NaCl, 10% glycerol, 1 mM TCEP, 50 nM DNA, 25 C; details: protein: recombinant;recombinant, tags: none;GST-His6 N-terminal, removed by TEV, copies: 1;1
T3 sequence 1: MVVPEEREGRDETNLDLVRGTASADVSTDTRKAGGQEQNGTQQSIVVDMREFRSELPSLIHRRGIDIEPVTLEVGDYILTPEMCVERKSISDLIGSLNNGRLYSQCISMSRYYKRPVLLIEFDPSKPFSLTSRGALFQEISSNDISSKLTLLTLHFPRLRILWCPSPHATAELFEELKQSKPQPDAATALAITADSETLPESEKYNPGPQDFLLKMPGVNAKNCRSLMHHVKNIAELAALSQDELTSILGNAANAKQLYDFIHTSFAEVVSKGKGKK
T3 sequence 2: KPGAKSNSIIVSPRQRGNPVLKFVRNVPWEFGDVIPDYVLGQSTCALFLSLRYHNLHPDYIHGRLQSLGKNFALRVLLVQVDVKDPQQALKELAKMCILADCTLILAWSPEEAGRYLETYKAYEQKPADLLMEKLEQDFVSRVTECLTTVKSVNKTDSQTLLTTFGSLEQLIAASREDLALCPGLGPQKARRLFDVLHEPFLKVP

Ku70;Ku80 [5] = biological target: T1, Ku70;Ku80; assay: mwPIFE; internal Cy3, PIFE falls with distance from free end; mwPIFE, room temp, 30 min: BamHI 10 mM Tris-HCl pH 8, 100 mM KCl, 0.02% Triton X-100, 0.1 mg/ml BSA, 5 mM EDTA/MgCl2/CaCl2; Ku 35 mM Tris-Cl pH 7.9, 5.5% glycerol, 150 mM KCl, 1 mM EDTA, 0.1 mM DTT, 1.5 mM imidazole; XPF/ERCC1 10 mM Tris-Cl pH 8, 10 mM NaCl. FA: 10 mM Tris-HCl pH 8, 10 mM NaCl, 10% glycerol, 1 mM TCEP, 50 nM DNA, 25 C; details: protein: recombinant;recombinant; tags: ;; copies: 1;1; label: 5' biotin-TEG strand 1; 3' biotin-TEG strand 2; iCy3; blunt; one end free
Ku70;Ku80 [6] = biological target: T1, Ku70;Ku80; assay: mwPIFE; internal Cy3, lower PIFE than terminal; mwPIFE, room temp, 30 min: BamHI 10 mM Tris-HCl pH 8, 100 mM KCl, 0.02% Triton X-100, 0.1 mg/ml BSA, 5 mM EDTA/MgCl2/CaCl2; Ku 35 mM Tris-Cl pH 7.9, 5.5% glycerol, 150 mM KCl, 1 mM EDTA, 0.1 mM DTT, 1.5 mM imidazole; XPF/ERCC1 10 mM Tris-Cl pH 8, 10 mM NaCl. FA: 10 mM Tris-HCl pH 8, 10 mM NaCl, 10% glycerol, 1 mM TCEP, 50 nM DNA, 25 C; details: protein: recombinant;recombinant; tags: ;; copies: 1;1; label: 5' biotin-TEG strand 1; 3' biotin-TEG strand 2; iCy3; blunt; one end free
Ku70;Ku80 [7] = biological target: T1, Ku70;Ku80; assay: mwPIFE; mwPIFE, room temp, 30 min: BamHI 10 mM Tris-HCl pH 8, 100 mM KCl, 0.02% Triton X-100, 0.1 mg/ml BSA, 5 mM EDTA/MgCl2/CaCl2; Ku 35 mM Tris-Cl pH 7.9, 5.5% glycerol, 150 mM KCl, 1 mM EDTA, 0.1 mM DTT, 1.5 mM imidazole; XPF/ERCC1 10 mM Tris-Cl pH 8, 10 mM NaCl. FA: 10 mM Tris-HCl pH 8, 10 mM NaCl, 10% glycerol, 1 mM TCEP, 50 nM DNA, 25 C; details: protein: recombinant;recombinant; tags: ;; copies: 1;1; label: 5' biotin strand 1; 5' Cy3 strand 2; blunt

T1 sequence (P12956 whole entry, chain 1 of 2): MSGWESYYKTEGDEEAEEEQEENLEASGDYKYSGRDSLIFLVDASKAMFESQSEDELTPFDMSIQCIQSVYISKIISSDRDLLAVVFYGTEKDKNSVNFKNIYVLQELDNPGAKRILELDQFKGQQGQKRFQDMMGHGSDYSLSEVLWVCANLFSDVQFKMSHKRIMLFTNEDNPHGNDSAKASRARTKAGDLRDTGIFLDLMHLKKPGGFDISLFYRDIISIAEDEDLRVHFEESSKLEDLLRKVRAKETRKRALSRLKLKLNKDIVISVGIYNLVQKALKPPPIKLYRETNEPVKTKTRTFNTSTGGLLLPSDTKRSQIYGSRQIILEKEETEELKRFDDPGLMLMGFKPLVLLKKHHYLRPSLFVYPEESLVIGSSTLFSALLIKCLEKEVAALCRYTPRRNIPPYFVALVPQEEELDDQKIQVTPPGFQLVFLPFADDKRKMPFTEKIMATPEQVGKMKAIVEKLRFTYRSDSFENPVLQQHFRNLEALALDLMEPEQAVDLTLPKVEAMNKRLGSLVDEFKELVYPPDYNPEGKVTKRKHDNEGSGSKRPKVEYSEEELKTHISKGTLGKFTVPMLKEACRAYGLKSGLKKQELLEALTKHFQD
T1 sequence (P13010 whole entry, chain 2 of 2): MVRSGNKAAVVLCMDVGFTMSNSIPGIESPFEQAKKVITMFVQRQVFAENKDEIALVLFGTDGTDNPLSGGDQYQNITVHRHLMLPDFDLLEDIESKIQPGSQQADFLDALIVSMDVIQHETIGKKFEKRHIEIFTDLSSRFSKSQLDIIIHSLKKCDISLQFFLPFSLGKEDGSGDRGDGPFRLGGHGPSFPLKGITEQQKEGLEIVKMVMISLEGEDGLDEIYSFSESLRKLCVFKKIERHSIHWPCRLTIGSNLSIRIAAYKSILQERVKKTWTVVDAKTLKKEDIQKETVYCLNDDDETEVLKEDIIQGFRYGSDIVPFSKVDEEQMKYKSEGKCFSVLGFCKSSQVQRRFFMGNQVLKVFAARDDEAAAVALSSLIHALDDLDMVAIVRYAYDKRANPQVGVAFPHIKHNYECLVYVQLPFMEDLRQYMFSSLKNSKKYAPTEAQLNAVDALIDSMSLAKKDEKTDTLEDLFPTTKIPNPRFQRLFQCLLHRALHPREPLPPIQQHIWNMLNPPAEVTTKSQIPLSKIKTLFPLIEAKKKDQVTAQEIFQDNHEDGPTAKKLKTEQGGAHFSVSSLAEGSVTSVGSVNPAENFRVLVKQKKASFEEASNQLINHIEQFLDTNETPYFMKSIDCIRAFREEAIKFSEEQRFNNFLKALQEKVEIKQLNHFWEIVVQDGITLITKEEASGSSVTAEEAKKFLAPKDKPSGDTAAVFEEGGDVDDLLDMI

B1: Btn_14_f/Cy3_14_r (dsDNA)
DNA 1: CCTAGATAGAGCCA
DNA 2: TGGCTCTATCTAGG
binding signal (Ku70;Ku80 [1]): ~50 % PIFE

B2: Btn_12_f/Cy3_12_r (dsDNA)
DNA 1: TAGATAGAGCCA
DNA 2: TGGCTCTATCTA
binding signal (Ku70;Ku80 [1]): 20 % PIFE

B3: scr competitor (no BamHI site) (dsDNA)
DNA 1: CCGTCCAACAGCGAGGCTGATTAAAGAATTCG
DNA 2: CGAATTCTTTAATCAGCCTCGCTGTTGGACGG
binding result [2]: no binding

B4: Btn_25BamHI1_f/Cy3_25BamHI1_r (dsDNA)
DNA 1: CACAACGACCACCTAGATGGATCCA
DNA 2: TGGATCCATCTAGGTGGTCGTTGTG
binding result [3]: binds

CAGCGCTCGGTTTTTTTTTTTTTTTTTTTTCCGAGCGCTG (structured_DNA) [HP (stem-loop)]
Kd ([4]; hairpin): 640 ± 100 nM

B5: Btn_13_f/Cy3_13_r (dsDNA)
DNA 1: CTAGATAGAGCCA
DNA 2: TGGCTCTATCTAG
binding signal (Ku70;Ku80 [1]): ~50 % PIFE

B6: 10ds (dsDNA)
DNA 1: CAGCGCTCGG
DNA 2: CCGAGCGCT
Kd ([4]; 5' overhang 1 nt on strand 1 as printed (meant blunt)): 4750 ± 800 nM

B7: BtnT_15_Cy3_60 (internal Cy3 60 nt from free end) (dsDNA)
DNA 1: TTGCATCCTTCACAACGACCACCTAGATAGAGCCAAGCAGTTTACGTACCGTCATTCCCTTCCACGTCATCGAGC
DNA 2: GCTCGATGACGTGGAAGGGAATGACGGTACGTAAACTGCTTGGCTCTATCTAGGTGGTCGTTGTGAAGGATGCAA
modifications: internal Cy3 after nt 15 of strand 1
binding result (Ku70;Ku80 [5]): binds

B8: C_f/C_r (no BamHI site) (dsDNA)
DNA 1: CACAACGACCACCTAGATAGAGCCAAGCAGTTTACGTACCGTCATTCCCTTCCACGTCATCGAGCTACCGTCGTC
DNA 2: GACGACGGTAGCTCGATGACGTGGAAGGGAATGACGGTACGTAAACTGCTTGGCTCTATCTAGGTGGTCGTTGTG
binding result [3]: no binding

B9: Btn_11_f/Cy3_11_r (dsDNA)
DNA 1: AGATAGAGCCA
DNA 2: TGGCTCTATCT
binding signal (Ku70;Ku80 [1]): 7 % PIFE

B10: BtnT_15_Cy3_15 (internal Cy3 15 nt from free end) (dsDNA)
DNA 1: TTGCATCCTTCACAACGACCACCTAGATAG
DNA 2: CTATCTAGGTGGTCGTTGTGAAGGATGCAA
modifications: internal Cy3 after nt 15 of strand 1
binding result (Ku70;Ku80 [6]): binds

B11: B-GC competitor (substitutions outside site) (dsDNA)
DNA 1: CACAACGCCGGATCCGGCCTAGAT
DNA 2: ATCTAGGCCGGATCCGGCGTTGTG
binding result [2]: binds

B12: Y (splayed arm) (structured_DNA)
DNA 1: CAGCGCTCGGTTTTTTTTTT
DNA 2: TTTTTTTTTTCCGAGCGCTG
Kd ([4]; fork 1:2, 10 bp duplex with two T10 arms): 810 ± 100 nM

B13: B-GC* competitor (one base changed in BamHI site) (dsDNA)
DNA 1: CACAACGCCTGATCCGGCCTAGAT
DNA 2: ATCTAGGCCGGATCAGGCGTTGTG
binding result [2]: no binding

B14: Btn_15_f/Cy3_15_r (dsDNA)
DNA 1: ACCTAGATAGAGCCA
DNA 2: TGGCTCTATCTAGGT
Kd (Ku70;Ku80 [7]): 10 ± 5 nM | binding signal (Ku70;Ku80 [1]; 5' Cy3 strand 2): ~50 % PIFE
